pKi: −log10 of the molar value.
What was measured:
[1] = target: T1, topo VI holoenzyme WT (Methanosarcina mazei) (UniProt Q8PUB7+Q8PUB8); test: fluorescence anisotropy; settings: FA: 20 nM probe, 50 mM K-glutamate, 20 mM HEPES-KOH pH 7.5, 10 mM MgCl2, 5% glycerol, 1 mM TCEP, 0.1 mg/mL BSA; incubated on ice, read at ambient temperature …
T1 sequence 1: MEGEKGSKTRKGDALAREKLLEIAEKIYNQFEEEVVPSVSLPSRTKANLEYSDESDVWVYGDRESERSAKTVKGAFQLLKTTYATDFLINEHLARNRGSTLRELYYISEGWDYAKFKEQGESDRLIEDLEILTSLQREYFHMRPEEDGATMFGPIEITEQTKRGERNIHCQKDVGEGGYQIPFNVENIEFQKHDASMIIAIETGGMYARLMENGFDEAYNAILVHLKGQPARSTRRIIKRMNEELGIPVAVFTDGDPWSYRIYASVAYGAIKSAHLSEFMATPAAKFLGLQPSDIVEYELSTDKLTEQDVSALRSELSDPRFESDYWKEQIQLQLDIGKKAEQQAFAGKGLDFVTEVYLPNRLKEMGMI
T1 sequence 2: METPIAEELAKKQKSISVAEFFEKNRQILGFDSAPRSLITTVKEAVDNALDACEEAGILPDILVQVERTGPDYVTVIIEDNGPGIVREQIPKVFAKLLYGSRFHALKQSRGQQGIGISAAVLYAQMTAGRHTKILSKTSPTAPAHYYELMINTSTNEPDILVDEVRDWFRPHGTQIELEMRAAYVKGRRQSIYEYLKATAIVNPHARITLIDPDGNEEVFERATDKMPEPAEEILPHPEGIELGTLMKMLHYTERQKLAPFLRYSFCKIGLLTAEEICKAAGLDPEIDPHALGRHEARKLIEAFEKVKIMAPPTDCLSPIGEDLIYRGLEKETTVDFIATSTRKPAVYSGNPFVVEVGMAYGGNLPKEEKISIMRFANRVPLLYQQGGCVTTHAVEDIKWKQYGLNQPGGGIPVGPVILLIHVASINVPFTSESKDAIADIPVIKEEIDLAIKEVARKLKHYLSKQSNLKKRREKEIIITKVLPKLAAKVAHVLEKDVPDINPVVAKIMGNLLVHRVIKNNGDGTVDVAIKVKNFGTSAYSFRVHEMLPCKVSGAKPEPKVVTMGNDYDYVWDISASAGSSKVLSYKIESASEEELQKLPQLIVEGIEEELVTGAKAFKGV

[2] = target: T2, topo VI KGRR-AAA K186A;R188A;R189A (Methanosarcina mazei) (UniProt Q8PUB7+Q8PUB8); test: competition (fluorescence anisotropy); settings: vs FAM 70 bp; FA: 20 nM probe, 50 mM K-glutamate, 20 mM HEPES-KOH pH 7.5, 10 mM MgCl2, 5% glycerol, 1 mM TCEP, 0.1 mg/mL BSA; incubated on ice, read at ambient temperature …
T2 sequence 1: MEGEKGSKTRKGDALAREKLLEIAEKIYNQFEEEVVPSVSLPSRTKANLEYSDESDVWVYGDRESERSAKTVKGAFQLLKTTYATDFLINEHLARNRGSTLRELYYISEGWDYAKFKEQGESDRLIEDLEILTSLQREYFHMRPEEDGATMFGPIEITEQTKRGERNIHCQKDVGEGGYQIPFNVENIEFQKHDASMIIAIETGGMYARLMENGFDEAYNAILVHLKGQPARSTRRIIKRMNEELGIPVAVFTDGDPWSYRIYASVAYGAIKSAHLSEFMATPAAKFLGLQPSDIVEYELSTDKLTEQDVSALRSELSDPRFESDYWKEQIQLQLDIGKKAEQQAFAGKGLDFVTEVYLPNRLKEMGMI
T2 sequence 2: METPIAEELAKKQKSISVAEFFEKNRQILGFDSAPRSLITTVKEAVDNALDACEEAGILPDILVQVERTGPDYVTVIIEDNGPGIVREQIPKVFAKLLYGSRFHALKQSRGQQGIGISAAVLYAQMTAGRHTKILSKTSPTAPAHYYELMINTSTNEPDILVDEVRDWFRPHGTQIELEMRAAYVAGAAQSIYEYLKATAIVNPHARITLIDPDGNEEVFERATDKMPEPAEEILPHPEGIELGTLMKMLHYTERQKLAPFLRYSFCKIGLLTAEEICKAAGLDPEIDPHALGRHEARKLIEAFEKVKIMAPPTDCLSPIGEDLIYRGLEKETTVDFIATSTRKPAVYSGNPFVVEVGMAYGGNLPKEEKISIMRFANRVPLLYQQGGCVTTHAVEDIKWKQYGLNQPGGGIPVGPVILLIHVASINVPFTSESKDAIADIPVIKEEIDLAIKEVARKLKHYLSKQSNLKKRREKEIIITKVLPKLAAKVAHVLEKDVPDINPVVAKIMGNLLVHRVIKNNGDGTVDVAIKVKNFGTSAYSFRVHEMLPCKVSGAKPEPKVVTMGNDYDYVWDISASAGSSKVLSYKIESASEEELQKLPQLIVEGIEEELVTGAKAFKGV

[3] = target: T3, topo VI H2TH-AAA R263A;K268A;K308A (Methanosarcina mazei) (UniProt Q8PUB7+Q8PUB8); test: competition (fluorescence anisotropy); settings: vs FAM 70 bp; FA: 20 nM probe, 50 mM K-glutamate, 20 mM HEPES-KOH pH 7.5, 10 mM MgCl2, 5% glycerol, 1 mM TCEP, 0.1 mg/mL BSA; incubated on ice, read at ambient temperature …
T3 sequence 1: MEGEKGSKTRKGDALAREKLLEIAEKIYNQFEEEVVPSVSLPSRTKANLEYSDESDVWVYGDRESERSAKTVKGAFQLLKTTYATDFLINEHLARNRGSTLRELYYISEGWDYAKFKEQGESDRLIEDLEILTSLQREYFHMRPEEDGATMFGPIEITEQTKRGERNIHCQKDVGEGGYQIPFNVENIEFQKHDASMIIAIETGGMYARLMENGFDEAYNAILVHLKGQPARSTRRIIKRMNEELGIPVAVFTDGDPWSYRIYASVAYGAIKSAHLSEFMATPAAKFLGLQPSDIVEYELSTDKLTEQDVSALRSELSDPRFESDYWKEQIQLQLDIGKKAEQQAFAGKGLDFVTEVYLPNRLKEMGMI
T3 sequence 2: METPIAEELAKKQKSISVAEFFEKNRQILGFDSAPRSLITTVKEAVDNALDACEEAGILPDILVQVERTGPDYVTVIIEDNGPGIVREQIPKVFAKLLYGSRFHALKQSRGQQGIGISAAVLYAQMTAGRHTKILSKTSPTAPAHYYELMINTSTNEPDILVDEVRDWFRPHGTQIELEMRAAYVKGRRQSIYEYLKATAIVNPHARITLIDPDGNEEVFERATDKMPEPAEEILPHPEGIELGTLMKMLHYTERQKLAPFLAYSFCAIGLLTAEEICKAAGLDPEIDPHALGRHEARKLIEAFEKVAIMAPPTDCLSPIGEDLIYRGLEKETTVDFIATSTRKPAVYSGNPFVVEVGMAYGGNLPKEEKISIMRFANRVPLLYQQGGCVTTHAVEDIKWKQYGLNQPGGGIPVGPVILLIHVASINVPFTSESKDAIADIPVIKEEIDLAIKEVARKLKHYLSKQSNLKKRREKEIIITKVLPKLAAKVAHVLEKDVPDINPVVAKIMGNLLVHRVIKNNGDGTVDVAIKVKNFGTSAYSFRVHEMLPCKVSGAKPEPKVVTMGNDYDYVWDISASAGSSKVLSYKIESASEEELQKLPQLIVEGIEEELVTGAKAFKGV

[4] = target: T1, topo VI holoenzyme WT (Methanosarcina mazei); test: competition (fluorescence anisotropy); settings: vs FAM 70 bp; FA: 20 nM probe, 50 mM K-glutamate, 20 mM HEPES-KOH pH 7.5, 10 mM MgCl2, 5% glycerol, 1 mM TCEP, 0.1 mg/mL BSA; incubated on ice, read at ambient temperature …
[5] = target: T4, topo VI KGRR-EEE K186E;R188E;R189E (Methanosarcina mazei) (UniProt Q8PUB7+Q8PUB8); test: competition (fluorescence anisotropy); settings: vs FAM 70 bp; FA: 20 nM probe, 50 mM K-glutamate, 20 mM HEPES-KOH pH 7.5, 10 mM MgCl2, 5% glycerol, 1 mM TCEP, 0.1 mg/mL BSA; incubated on ice, read at ambient temperature …
T4 sequence 1: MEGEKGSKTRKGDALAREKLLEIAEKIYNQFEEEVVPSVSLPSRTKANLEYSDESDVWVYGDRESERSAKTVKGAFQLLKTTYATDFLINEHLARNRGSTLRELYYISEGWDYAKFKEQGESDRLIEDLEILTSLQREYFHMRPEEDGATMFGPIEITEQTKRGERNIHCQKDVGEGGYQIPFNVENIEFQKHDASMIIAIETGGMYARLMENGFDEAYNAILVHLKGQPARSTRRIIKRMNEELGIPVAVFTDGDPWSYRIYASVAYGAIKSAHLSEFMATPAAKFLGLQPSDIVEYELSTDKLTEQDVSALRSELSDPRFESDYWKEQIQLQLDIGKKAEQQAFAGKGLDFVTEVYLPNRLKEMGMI
T4 sequence 2: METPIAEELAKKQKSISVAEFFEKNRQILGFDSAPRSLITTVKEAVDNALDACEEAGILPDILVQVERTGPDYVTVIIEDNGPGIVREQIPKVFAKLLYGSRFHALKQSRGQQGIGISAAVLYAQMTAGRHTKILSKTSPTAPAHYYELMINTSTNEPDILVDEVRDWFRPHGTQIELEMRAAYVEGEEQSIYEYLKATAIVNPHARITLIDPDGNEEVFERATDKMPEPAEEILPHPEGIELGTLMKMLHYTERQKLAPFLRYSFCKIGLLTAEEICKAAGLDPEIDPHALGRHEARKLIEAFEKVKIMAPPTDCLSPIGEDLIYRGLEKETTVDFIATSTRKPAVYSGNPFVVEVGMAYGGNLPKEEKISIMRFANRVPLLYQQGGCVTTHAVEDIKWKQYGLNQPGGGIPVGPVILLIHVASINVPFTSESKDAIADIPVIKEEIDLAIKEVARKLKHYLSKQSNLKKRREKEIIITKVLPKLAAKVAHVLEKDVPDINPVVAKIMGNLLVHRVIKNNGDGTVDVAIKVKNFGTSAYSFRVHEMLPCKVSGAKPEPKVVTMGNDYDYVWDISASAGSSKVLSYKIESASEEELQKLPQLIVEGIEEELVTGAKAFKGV

[6] = target: T5, topo VI H2TH-EEE R263E;K268E;K308E (Methanosarcina mazei) (UniProt Q8PUB7+Q8PUB8); test: competition (fluorescence anisotropy); settings: vs FAM 70 bp; FA: 20 nM probe, 50 mM K-glutamate, 20 mM HEPES-KOH pH 7.5, 10 mM MgCl2, 5% glycerol, 1 mM TCEP, 0.1 mg/mL BSA; incubated on ice, read at ambient temperature …
T5 sequence 1: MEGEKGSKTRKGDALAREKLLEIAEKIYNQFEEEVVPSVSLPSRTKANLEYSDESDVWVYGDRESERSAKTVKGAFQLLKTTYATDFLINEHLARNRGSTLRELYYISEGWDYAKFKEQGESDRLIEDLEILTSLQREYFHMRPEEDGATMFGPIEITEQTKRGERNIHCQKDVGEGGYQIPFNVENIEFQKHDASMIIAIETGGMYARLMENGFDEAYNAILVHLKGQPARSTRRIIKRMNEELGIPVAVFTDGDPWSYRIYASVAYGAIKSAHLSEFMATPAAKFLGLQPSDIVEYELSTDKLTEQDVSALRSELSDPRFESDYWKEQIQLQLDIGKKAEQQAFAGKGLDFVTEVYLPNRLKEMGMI
T5 sequence 2: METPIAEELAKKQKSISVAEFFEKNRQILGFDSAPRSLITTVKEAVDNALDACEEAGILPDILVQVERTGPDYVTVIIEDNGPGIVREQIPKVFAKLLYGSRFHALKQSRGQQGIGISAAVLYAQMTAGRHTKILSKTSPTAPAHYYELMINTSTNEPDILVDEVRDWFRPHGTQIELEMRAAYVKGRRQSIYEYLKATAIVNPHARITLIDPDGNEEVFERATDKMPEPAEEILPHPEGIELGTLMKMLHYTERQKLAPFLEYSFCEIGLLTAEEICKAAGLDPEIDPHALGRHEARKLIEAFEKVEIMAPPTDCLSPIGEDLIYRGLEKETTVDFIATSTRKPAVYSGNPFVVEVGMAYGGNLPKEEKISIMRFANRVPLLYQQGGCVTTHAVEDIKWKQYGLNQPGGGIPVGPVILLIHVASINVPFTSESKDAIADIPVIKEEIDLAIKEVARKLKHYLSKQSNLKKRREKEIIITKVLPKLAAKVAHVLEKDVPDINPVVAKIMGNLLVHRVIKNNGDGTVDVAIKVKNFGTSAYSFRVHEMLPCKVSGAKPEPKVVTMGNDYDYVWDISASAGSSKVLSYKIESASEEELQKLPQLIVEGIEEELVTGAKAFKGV

Row | Substance | binding signal (fold Kd of 60 bp duplex) [1] | pKi [2] | pKi [3] | pKi [4] | pKi [5] | pKi [6]
1 | 80 bp duplex | 2 |  |  |  |  | 
2 | pSG483 negatively supercoiled plasmid |  | 8.14 | 8.89 | 9.22 | 7.83 | 8.00

Reference: PMC5922973, “Topoisomerase VI senses and exploits both DNA crossings and bends to facilitate strand passage” (eLife, 2018)
